# From patent US20170320966A1 (INDUSTRIAL TECHNOLOGY RESEARCH INSTITUTE, published 2017)
# Positions count from the first letter of the chain named.
# T1: human CD34 protein (Fc tag) (human, UniProt P28906 32-290)
# T1 construct: Bought reagent (Sino Biological); also called recombinant human CD34 protein; immobilized human CD34 protein; not shown: Fc tag
# T1 sequence (looked up): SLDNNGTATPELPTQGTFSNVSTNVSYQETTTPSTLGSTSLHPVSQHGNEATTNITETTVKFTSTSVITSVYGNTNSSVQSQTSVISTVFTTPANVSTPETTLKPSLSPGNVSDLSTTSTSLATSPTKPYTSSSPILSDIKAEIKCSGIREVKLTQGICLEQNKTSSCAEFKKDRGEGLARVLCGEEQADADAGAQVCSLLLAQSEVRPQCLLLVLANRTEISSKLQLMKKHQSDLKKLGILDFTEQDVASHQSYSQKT
# B1: chimeric QBEND/10 (antibody, V domains shown)
# VH: QVQLEQSGPELVKPGASVKMSCKASGYTFTSYVIHWVKQKPGQGLEWLGYTNPYNDVTKYNEKFKFKATLTSDKQSTTAYMEFSSLTSEDSAVYYCARYGGLWLYAMDYWGQGTSVTVSS
# VL: QLVLTQSSSASFSLGASAKLTCTLSSQHRTFTIEWYQQQPLKPPKYVMELRKDGSHSTGDGIPDRFSGSSSGADRYLSISNIQPEDEAIYICGVGNTIKEQFVYVFGGGTKVTVL
# notes: Expressed in NS0 cells; also called chimeric QBEND/10 antibody; parental antibody
# B2: humanized QBEND/10 (antibody, V domains shown)
# VH: B1 VH with E5V, P9A, K74T, Q75S
# VL: B1 VL with S8P, L41E, T58K, N81S, G108T
# notes: Expressed in NS0 cells; also called resurfaced QBEND/10; humanized QBEND/10 antibody
# Legend:
# [1] = biological target: T1, human CD34 protein (Fc tag); assay: SPR (Biacore X), CD34-Fc immobilized on chip, antibody injected, bivalent fit
# Description: (§1) FIGS. 8A and 8B show the surface plasma resonance (SPR) analysis of interaction between human CD34 protein and chimeric QBEND/10 (A) or humanized QBEND/10 (B). Each antibody was injected and flowed over a surface chip with immobilized human CD34 protein at a flow rate of 30 μl/min. The resulting SPR sensorgrams were analyzed to determine the association/dissociation rate constants using the analysis program (BIAevaluation 3.2) provided by the manufacturer.
# (§2) The binding kinetics of QBEND/10 antibodies to the human CD34 protein (Fc tag) (Sino Biological Incorporation, Beijing, China) were measured by performing the Biacore system (Biacore X, GE Healthcare, South Logan, Utah, USA) in the electrophoresis running buffer HBS-EP (10 mM HEPES, pH 7.4; 150 mM NaCl; 3 mM EDTA; 0.005% surfactant P20). In Brief, human CD34 protein was immobilized onto a CMS sensor chip via amine coupling to a level of 1200 response units (RU), and purified antibodies with different concentrations were injected at a flow rate of 30 μl/min. The surface was regenerated by injection of 15 μl of 10 mM glycine-HCl, pH 2.5. Then, the sensorgrams obtained at each concentration were evaluated by the program BIA Evaluation 3.2 (GE Healthcare, South Logan, Utah, USA). The binding data were fitted with a 2:1 (bivalent) binding model to calculate the affinity constant KD, which was defined as the ratio of dissociation rate (koff)/association rate (kₒₙ).
# [2] = biological target: T1, human CD34 protein (Fc tag); assay: SPR (Biacore X), CD34-Fc immobilized on chip
# Description: as §1
# as §2, with “The binding data were fitted with a 2:1 (bivalent) binding model to calculate the affinity constant KD, which was defined as the ratio of dissociation rate (koff)/association rate (kₒₙ).” left out
Binder,Kd [1],koff [1],kon [1],fold increase of kon against chimeric QBEND/10 [2]
B1,14.7 nM,0.000262 s⁻¹,17800 M⁻¹ s⁻¹,
B2,7.34 nM,0.000268 s⁻¹,36600 M⁻¹ s⁻¹,2 fold
